Measurements reported in patent publication US20120201826A1 (NOV IMMUNE S A, published 2012).

Experiments:
[1] = target: T1, mouse RANTES, biotinylated in vivo (Example 14) (mouse, UniProt P30882 24-91, biotinylated in vivo at the AviTag); test: ELISA: biotinylated chemokine captured on Streptawell plate, 1E4 at 1 µg/ml, goat anti-human IgG Fc-gamma-HRP, TMB, OD450
T1 construct: Captured on streptavidin plates; not shown: AviTag biotinylation site at the C-terminus
Description: Three mutants of mouse RANTES were generated by site directed mutagenesis in order to introduce the human residues at those positions: [S16A/L17R/A18P]; [S32G/L37P] and [Q59R/Y64S]. […] These variant of mouse RANTES were captured in streptavidin coated plates (Streptawell, Roche). […] The plate was washed and incubated with a goat anti-human IgG Fcγ-specific antibody coupled to horse radish peroxidase (Jackson). […] The plates were read at 450 nm.

[2] = target: T2, recombinant human RANTES (huRANTES, Peprotech) (human, UniProt P13501 24-91); test: cell-based or functional assay
T2 sequence: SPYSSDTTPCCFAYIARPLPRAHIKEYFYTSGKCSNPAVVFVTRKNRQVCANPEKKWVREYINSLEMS

[3] = target: T3, rat RANTES, expressed as fusion protein (ELISA panel) (rat, UniProt P30882 24-91 (mouse entry), Biotinylated in vivo at the AviTag, which is not in the letters); test: ELISA, chemokine coated at 5 ug/ml, concentration range of 1E4
T3 construct: not shown: NusA fusion partner with Factor X site, and the C-terminal AviTag

[4] = target: T4, native human RANTES produced by THP1 cells (human, UniProt P13501 24-91); test: cell-based or functional assay
T4 sequence: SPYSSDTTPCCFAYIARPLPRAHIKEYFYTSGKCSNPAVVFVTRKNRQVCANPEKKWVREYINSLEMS

[5] = target: T5, NusA-huRANTES fusion protein (human, UniProt P13501 24-91, biotinylated in vivo at the AviTag); test: ELISA: chemokine fusion protein coated at 5 µg/ml, titration of 1E4, anti-human Fc-gamma-HRP and fluorescent substrate
T5 construct: GenBank M21121 is printed for the human RANTES gene; also called NusA-Rantes; not shown: NusA fusion partner of expression plasmid pET43 (Novagen); Factor X protease cleavage site at the C-terminus of NusA; AviTag biotinylation site at the C-terminus of the chemokine
T5 sequence: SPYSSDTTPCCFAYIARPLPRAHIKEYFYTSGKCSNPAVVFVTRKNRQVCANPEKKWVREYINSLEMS

[6] = target: T6, moIP-10 (mouse, UniProt P17515); test: as above
T6 construct: coated protein of the ELISA panel; also called mouse IP-10
T6 sequence (chemokine, looked up): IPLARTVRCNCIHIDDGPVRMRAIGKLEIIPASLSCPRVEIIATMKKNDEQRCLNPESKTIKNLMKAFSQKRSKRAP

[7] = target: T7, ratIP-10 (rat, UniProt P48973); test: as above
T7 construct: coated protein of the ELISA panel
T7 sequence (chemokine, looked up): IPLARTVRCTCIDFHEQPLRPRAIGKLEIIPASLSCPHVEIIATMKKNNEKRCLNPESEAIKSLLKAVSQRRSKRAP

[8] = target: T8, NusA-cynoRANTES fusion protein (cynomolgus monkey, UniProt Q8HYQ1 24-91 (rhesus entry), biotinylated in vivo at the AviTag); test: as above
T8 construct: also called cynomolgus RANTES; not shown: NusA fusion partner of expression plasmid pET43 (Novagen); Factor X protease cleavage site at the C-terminus of NusA; AviTag biotinylation site at the C-terminus of the chemokine
T8 sequence: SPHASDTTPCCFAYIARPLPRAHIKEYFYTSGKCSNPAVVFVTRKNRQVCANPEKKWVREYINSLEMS

[9] = target: T9, mouse RANTES, expressed as fusion protein (ELISA panel) (mouse, UniProt P30882 24-91, Biotinylated in vivo at the AviTag, which is not in the letters); test: as above
T9 construct: not shown: NusA fusion partner with Factor X site, and the C-terminal AviTag

[10] = target: T2, recombinant human RANTES (huRANTES, …); test: cell-based or functional assay; remark: listed apart in the source
[11] = target: T5, NusA-huRANTES fusion protein; test: SPR (Biacore 2000), 1E4 captured on anti-human IgG, chemokine as analyte, 25 C, 1:1 Langmuir fit
Description: (§1) 433 RU (response unit) of a donkey anti-human IgG polyclonal antibody were immobilized by EDC/NHS chemistry on a C1 Biacore chip. […] The surface was regenerated after each cycle by injection of 10 mM glycine pH=2 at 30 μL/min, for 60s followed by 1 min. of stabilization time in HBS-EP buffer.
(§2) All proteins were diluted in the running buffer HBS-EP buffer (Biacore AB, Uppsala, Sweden). Injection was performed at 75 μl/min for 3 min. followed by 15 min. of dissociation time and the temperature was set at 25° C.

[12] = target: T8, NusA-cynoRANTES fusion protein; test: as above
Description: as §1, §2

[13] = target: T2, recombinant human RANTES (huRANTES, …); test: as above
Description: as §1, §2

[14] = target: T4, native human RANTES produced by THP1 …; test: cell-based or functional assay; remark: listed apart in the source
[15] = target: T2, recombinant human RANTES (huRANTES, …); test: cell-based or functional assay; remark: listed apart in the source

T1 sequence (P30882 24-91): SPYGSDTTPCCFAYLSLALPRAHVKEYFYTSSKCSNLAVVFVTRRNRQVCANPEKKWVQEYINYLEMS
T3 sequence (P30882 24-91 limits assumed): as the sequence (P30882 24-91) above
T9 sequence (P30882 24-91 limits assumed): as the sequence (P30882 24-91) above

B1: 1E4 antibody, IgG1 format (antibody, V domains shown)
VH: QVQLVQSGAEVKKPGASVKVSCKVSGYTLTEFAMHWVRQAPGKGLEWMGGFVPEDGETIYAQKFQGRVTMTEDTSTDTAYMELSSLRSEDTAVYYCATDPLYEGSFSVWGQGTTVTVSS
VL: SYVLTQPPSVSVAPGQTARITCGGNNIESKSVHWYQQKPGQAPVLVVYDDSDRPSGIPERFSGSNSGNTATLTISRVEAGDEADYYCQVWDSNTDHWVFGGGTKLTVLG
notes: also called antibody 1E4 purified from CHO supernatant
[1]
  binding result: no binding (tested: 1 µg/ml)
[2]
  Chemotaxis IC50 (nM), 0.2 nM huRANTES; L1.2-hCCR5 cells; IgG1 format: 0.034 nM
  Chemotaxis IC50 (nM), 1 nM huRANTES; L1.2-hCCR5 cells; IgG1 format: 0.46 nM
[3]
  binding result: no binding
[4]
  Chemotaxis IC50 (nM), native huRANTES from THP1 cells; L1.2-hCCR5 cells; IgG1 format: 0.028 nM
[5]
  EC50 (read off the curve): ~0.01 µg/mL
[6]
  binding result: no binding (tested: about 3 µg/ml)
[7]
  binding result: no binding (tested: about 3 µg/ml)
[8]
  EC50 (read off the curve): ~0.01 µg/mL
[9]
  binding result: no binding (tested: about 3 µg/ml)
[10]
  Calcium flux IC50 (nM); L1.2-hCCR1; 25 nM huRANTES: 4.9 nM
  Calcium flux IC50 (nM); L1.2-hCCR3; 25 nM huRANTES: 4.46 nM
  Calcium flux IC50 (nM); L1.2-hCCR5; 4 nM huRANTES: 0.54 nM
[11]
  Kd: 0.447 nM
[12]
  Kd: 2.24 nM
[13]
  Kd: 0.455 nM
[14]
  Chemotaxis IC50 (nM); L1.2-hCCR5; 1 nM native huRANTES: 0.09 nM
[15]
  Chemotaxis IC50 (nM); L1.2-hCCR1; 2 nM huRANTES: 0.46 nM
  Chemotaxis IC50 (nM); L1.2-hCCR3; 10 nM huRANTES: 3.33 nM
  Chemotaxis IC50 (nM); L1.2-hCCR5; 1 nM huRANTES: 0.2 nM
